The assay deals with human glucagon receptor (human, UniProt P47871 26-477). The experiment in a line: cell-based or functional assay.

Non-standard residues stand in square brackets, D forms with d. Dab = NCC[C@H](N)C(=O)O; Dap = NC[C@H](N)C(=O)O; Aib = CC(C)(N)C(=O)O

human glucagon receptor, sequence (P47871 26-477): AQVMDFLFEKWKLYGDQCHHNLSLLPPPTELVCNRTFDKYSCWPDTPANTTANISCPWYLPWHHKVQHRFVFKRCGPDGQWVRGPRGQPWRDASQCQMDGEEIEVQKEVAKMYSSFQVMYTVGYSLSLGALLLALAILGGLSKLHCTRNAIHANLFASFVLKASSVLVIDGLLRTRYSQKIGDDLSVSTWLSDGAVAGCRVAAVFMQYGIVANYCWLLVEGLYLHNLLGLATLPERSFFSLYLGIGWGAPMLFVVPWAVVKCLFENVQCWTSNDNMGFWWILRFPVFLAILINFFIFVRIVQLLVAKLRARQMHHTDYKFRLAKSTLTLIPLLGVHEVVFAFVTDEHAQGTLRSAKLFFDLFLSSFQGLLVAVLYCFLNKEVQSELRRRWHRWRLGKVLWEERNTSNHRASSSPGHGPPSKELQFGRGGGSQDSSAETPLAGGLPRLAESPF

Consider H-HSQGTFTSDYSKYLDEARAKDFVEWLEKT-OH [Compound 5], for which the “GCG-R EC50 in vitro [nM] (cAMP, AlphaScreen, HEK293 cells expressing human Glucagon-R)” value (“GCG-R EC50 in vitro [nM]” below) is 0.17 nM.
For H-HSQGTFTSDYSKYLDSARAEDFVEWLEST-OH [Compound 6], the “GCG-R EC50 in vitro [nM]” value amounted to 1 nM.

B1: Compound 41 (peptide)
peptide: H-HS[Dap](Ac)GTFTSDYSKYLD[Aib]ARAEEFVKWLEST-NH2
SMILES: CC(=O)NC[C@H](NC(=O)[C@H](CO)NC(=O)[C@@H](N)Cc1c[nH]cn1)C(=O)NCC(=O)N[C@H](C(=O)N[C@@H](Cc1ccccc1)C(=O)N[C@H](C(=O)N[C@@H](CO)C(=O)N[C@@H](CC(=O)O)C(=O)N[C@@H](Cc1ccc(O)cc1)C(=O)N[C@@H](CO)C(=O)N[C@@H](CCCCN)C(=O)N[C@@H](Cc1ccc(O)cc1)C(=O)N[C@@H](CC(C)C)C(=O)N[C@@H](CC(=O)O)C(=O)NC(C)(C)C(=O)N[C@@H](C)C(=O)N[C@@H](CCCNC(=N)N)C(=O)N[C@@H](C)C(=O)N[C@@H](CCC(=O)O)C(=O)N[C@@H](CCC(=O)O)C(=O)N[C@@H](Cc1ccccc1)C(=O)N[C@H](C(=O)N[C@@H](CCCCN)C(=O)N[C@@H](Cc1c[nH]c2ccccc12)C(=O)N[C@@H](CC(C)C)C(=O)N[C@@H](CCC(=O)O)C(=O)N[C@@H](CO)C(=O)N[C@H](C(N)=O)[C@@H](C)O)C(C)C)[C@@H](C)O)[C@@H](C)O
With B1, the “GCG-R EC50 in vitro [nM]” value was determined as 0.0038 nM.
As for H-HSQGTFTSDYSKYLESARAEDFVKWLEST-OH [Compound 8], the “GCG-R EC50 in vitro [nM]” value turned out to be 0.38 nM.

B2: Compound 40 (peptide)
peptide: H-HS[Dab](Ac)GTFTSDYSKYLD[Aib]ARAEEFVKWLEST-NH2
SMILES: CC(=O)NCC[C@H](NC(=O)[C@H](CO)NC(=O)[C@@H](N)Cc1c[nH]cn1)C(=O)NCC(=O)N[C@H](C(=O)N[C@@H](Cc1ccccc1)C(=O)N[C@H](C(=O)N[C@@H](CO)C(=O)N[C@@H](CC(=O)O)C(=O)N[C@@H](Cc1ccc(O)cc1)C(=O)N[C@@H](CO)C(=O)N[C@@H](CCCCN)C(=O)N[C@@H](Cc1ccc(O)cc1)C(=O)N[C@@H](CC(C)C)C(=O)N[C@@H](CC(=O)O)C(=O)NC(C)(C)C(=O)N[C@@H](C)C(=O)N[C@@H](CCCNC(=N)N)C(=O)N[C@@H](C)C(=O)N[C@@H](CCC(=O)O)C(=O)N[C@@H](CCC(=O)O)C(=O)N[C@@H](Cc1ccccc1)C(=O)N[C@H](C(=O)N[C@@H](CCCCN)C(=O)N[C@@H](Cc1c[nH]c2ccccc12)C(=O)N[C@@H](CC(C)C)C(=O)N[C@@H](CCC(=O)O)C(=O)N[C@@H](CO)C(=O)N[C@H](C(N)=O)[C@@H](C)O)C(C)C)[C@@H](C)O)[C@@H](C)O
Take B2: the “GCG-R EC50 in vitro [nM]” value is 0.0035 nM.
Consider H-HSQGTFTSDYSKYLDSARAEDFVAWLEST-OH [Compound 4], for which the “GCG-R EC50 in vitro [nM]” value was found to be 0.34 nM.
In the case of H-HSQGTFTSDYSKYLDKARAEDFVKWLEST-OH [Compound 3] it was 0.03 nM.
Take H-HSQGTFTSDYSRYLESARAEDFVKWLEST-OH [Compound 7]: the “GCG-R EC50 in vitro [nM]” value stood at 0.93 nM.

B3: Compound 38 (peptide)
peptide: H-HSHGTFTSDYSKYLD[Aib]ARAEEFVKWLEST-NH2
SMILES: CC(C)C[C@H](NC(=O)[C@H](Cc1c[nH]c2ccccc12)NC(=O)[C@H](CCCCN)NC(=O)[C@@H](NC(=O)[C@H](Cc1ccccc1)NC(=O)[C@H](CCC(=O)O)NC(=O)[C@H](CCC(=O)O)NC(=O)[C@H](C)NC(=O)[C@H](CCCNC(=N)N)NC(=O)[C@H](C)NC(=O)C(C)(C)NC(=O)[C@H](CC(=O)O)NC(=O)[C@H](CC(C)C)NC(=O)[C@H](Cc1ccc(O)cc1)NC(=O)[C@H](CCCCN)NC(=O)[C@H](CO)NC(=O)[C@H](Cc1ccc(O)cc1)NC(=O)[C@H](CC(=O)O)NC(=O)[C@H](CO)NC(=O)[C@@H](NC(=O)[C@H](Cc1ccccc1)NC(=O)[C@@H](NC(=O)CNC(=O)[C@H](Cc1c[nH]cn1)NC(=O)[C@H](CO)NC(=O)[C@@H](N)Cc1c[nH]cn1)[C@@H](C)O)[C@@H](C)O)C(C)C)C(=O)N[C@@H](CCC(=O)O)C(=O)N[C@@H](CO)C(=O)N[C@H](C(N)=O)[C@@H](C)O
On to B3, for which the “GCG-R EC50 in vitro [nM]” value was 0.0047 nM.

B4: Compound 39 (peptide)
peptide: H-HS[Dab](Ac)GTFTSDYSKYLD[Aib]ARAEEFVKWLEST-OH
SMILES: CC(=O)NCC[C@H](NC(=O)[C@H](CO)NC(=O)[C@@H](N)Cc1c[nH]cn1)C(=O)NCC(=O)N[C@H](C(=O)N[C@@H](Cc1ccccc1)C(=O)N[C@H](C(=O)N[C@@H](CO)C(=O)N[C@@H](CC(=O)O)C(=O)N[C@@H](Cc1ccc(O)cc1)C(=O)N[C@@H](CO)C(=O)N[C@@H](CCCCN)C(=O)N[C@@H](Cc1ccc(O)cc1)C(=O)N[C@@H](CC(C)C)C(=O)N[C@@H](CC(=O)O)C(=O)NC(C)(C)C(=O)N[C@@H](C)C(=O)N[C@@H](CCCNC(=N)N)C(=O)N[C@@H](C)C(=O)N[C@@H](CCC(=O)O)C(=O)N[C@@H](CCC(=O)O)C(=O)N[C@@H](Cc1ccccc1)C(=O)N[C@H](C(=O)N[C@@H](CCCCN)C(=O)N[C@@H](Cc1c[nH]c2ccccc12)C(=O)N[C@@H](CC(C)C)C(=O)N[C@@H](CCC(=O)O)C(=O)N[C@@H](CO)C(=O)N[C@H](C(=O)O)[C@@H](C)O)C(C)C)[C@@H](C)O)[C@@H](C)O
On to B4, for which the “GCG-R EC50 in vitro [nM]” value came out at 0.0044 nM.
